Test results published in publication PMC6423418 (Human Molecular Genetics, 2018).
Numbering of substitutions follows the chain as printed. Names may count otherwise. “And” between values parts separate entries of the source, which are not always exact repeats. Equal entries are not always repeated.

B1: Wild-type TWINKLE lacking the mitochondrial targeting sequence (residues 1-42) (enzyme, human, UniProt Q96RR1 43-684, looked up)
chain: ETLQALDMPVLPVTATEIRQYLRGHGIPFQDGHSCLRALSPFAESSQLKGQTGVTTSFSLFIDKTTGHFLCMTSLAEGSWEDFQASVEGRGDGAREGFLLSKAPEFEDSEEVRRIWNRAIPLWELPDQEEVQLADTMFGLTKVTDDTLKRFSVRYLRPARSLVFPWFSPGGSGLRGLKLLEAKCQGDGVSYEETTIPRPSAYHNLFGLPLISRRDAEVVLTSRELDSLALNQSTGLPTLTLPRGTTCLPPALLPYLEQFRRIVFWLGDDLRSWEAAKLFARKLNPKRCFLVRPGDQQPRPLEALNGGFNLSRILRTALPAWHKSIVSFRQLREEVLGELSNVEQAAGLRWSRFPDLNRILKGHRKGELTVFTGPTGSGKTTFISEYALDLCSQGVNTLWGSFEISNVRLARVMLTQFAEGRLEDQLDKYDHWADRFEDLPLYFMTFHGQQSIRTVIDTMQHAVYVYDICHVIIDNLQFMMGHEQLSTDRIAAQDYIIGVFRKFATDNNCHVTLVIHPRKEDDDKELQTASIFGSAKASQEADNVLILQDRKLVTGPGKRYLQVSKNRFDGDVGVFPLEFNKNSLTFSIPPKNKARLKKIKDDTGPVAKKPSSGKKGATTQNSEICSGQAPTPDQPDTSKRSK
B2: P335L TWINKLE (enzyme, human, UniProt Q96RR1 43-684, looked up)
chain: B1 chain with P293L
B3: L381P TWINKLE (enzyme, human, UniProt Q96RR1 43-684, looked up)
chain: B1 chain with L339P
B4: W315L TWINKLE (enzyme, human, UniProt Q96RR1 43-684, looked up)
chain: B1 chain with W273L
B5: S369P TWINKLE (enzyme, human, UniProt Q96RR1 43-684, looked up)
chain: B1 chain with S327P
B6: R334Q TWINKLE (enzyme, human, UniProt Q96RR1 43-684, looked up)
chain: B1 chain with R292Q

Target: the molecule itself
Experiment: negative-stain single-particle electron microscopy

Row | Protein | stoichiometry N
1 | B1 | 6 and 7
2 | B2 | 6 and 7 and 8 and 9
3 | B3 | 6 and 7 and 5
4 | B4 | 7
5 | B5 | 6 and 7
6 | B6 | 7 and 6

Target: the molecule itself
Experiment: negative-stain single-particle electron microscopy
Remark: another data set of the same source

Row | Protein | oligomeric state (%), heptamer [%] | oligomeric state (%), hexamer [%] | oligomeric state (%), broken ring [%]
7 | B1 | 41.1 | 58.9 | –
8 | B2 | 72.3 | 4.7 | 6.4
9 | B3 | 28.6 | 33 | 26.9
10 | B4 | 87.1 | – | 12.9
11 | B5 | 41.6 | 13.2 | 45.2
12 | B6 | 55.1 | 36.6 | 8.3
